Here are results for 40 variants from the supplement of paper PMC6755084.

Sequences and labels used below:
B1: minF1; the commonest letter at each place (parent)
chain: GAGACCGCAACTGAAAAGTTGTTATCAGAAATGGATGGGTTGAATTTCTGCACGTAGAAGCAAAAGGC

In the data set the parent is B1. Kind of data set: fraction ligated after 30 min (ligated reads / total reads); higher = more ligase activity. Particulars: with F1*subA RNA substrate (template-directed ligation), 42 °C. A digest of the protocol:
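RNAs for minimized ligase ribozyme variants were transcribed with T7 from PCR-amplified oligo-pool templates and purified on gels. Ligated and unligated species were resolved on gels, converted to cDNA with barcoded primers, and read on a MiSeq with core bases filtered at quality ≥30. Fraction ligated per variant is the ratio of ligated reads to total reads.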
Take GAGACCGCAACTGAAAAGTTGTTATAAGAATTGGATGGGTTGAATTTCTGCACGTAGAAGCAAAAGGC [C26A A31T]: the fraction ligated came out at 0.0701.

Regarding GAGACCGCAACTGAAAAGTTGTTATAAGAAGTGGATGGGTTGAATTTCTGCACGTAGAAGCAAAAGGC [C26A A31G], the fraction ligated turned out to be 0.102.

In the case of GAGACCGCAACTGAAAAGTTGTTATGCGAAATGGATGGGTTGAATTTCTGCACGTAGAAGCAAAAGGC [C26G A27C], the fraction ligated was found to be 0.0501.

GAGACCGCAACTGAAAAGTTGTTATGTGAAATGGATGGGTTGAATTTCTGCACGTAGAAGCAAAAGGC [C26G A27T]: the fraction ligated was determined as 0.0725.

On to GAGACCGCAACTGAAAAGTTGTTATGGGAAATGGATGGGTTGAATTTCTGCACGTAGAAGCAAAAGGC [C26G A27G], for which the fraction ligated was determined as 0.0369.

Turning to GAGACCGCAACTGAAAAGTTGTTATAAGAAATTGATGGGTTGAATTTCTGCACGTAGAAGCAAAAGGC [C26A G33T], the fraction ligated turned out to be 0.0279.

As for GAGACCGCAACTGAAAAGTTGTTATAAGAAATAGATGGGTTGAATTTCTGCACGTAGAAGCAAAAGGC [C26A G33A], the fraction ligated stood at 0.19.

Consider GAGACCGCAACTGAAAAGTTGTTATAAGAAATCGATGGGTTGAATTTCTGCACGTAGAAGCAAAAGGC [C26A G33C], for which the fraction ligated came to 0.0427.

Turning to GAGACCGCAACTGAAAAGTTGTTATAAGATATGGATGGGTTGAATTTCTGCACGTAGAAGCAAAAGGC [C26A A30T], the fraction ligated turned out to be 0.0695.

Regarding GAGACCGCAACTGAAAAGTTGTTATAAGACATGGATGGGTTGAATTTCTGCACGTAGAAGCAAAAGGC [C26A A30C], the fraction ligated was found to be 0.0463.

As to GAGACCGCAACTGAAAAGTTGTTATAAGAGATGGATGGGTTGAATTTCTGCACGTAGAAGCAAAAGGC [C26A A30G], the fraction ligated is 0.216.

With GAGACCGCAACTGAAAAGTTGTTATGAGTAATGGATGGGTTGAATTTCTGCACGTAGAAGCAAAAGGC [C26G A29T], the fraction ligated was 0.0347.

As for GAGACCGCAACTGAAAAGTTGTTATGAGGAATGGATGGGTTGAATTTCTGCACGTAGAAGCAAAAGGC [C26G A29G], the fraction ligated is 0.0311.

As to GAGACCGCAACTGAAAAGTTGTTATGAGCAATGGATGGGTTGAATTTCTGCACGTAGAAGCAAAAGGC [C26G A29C], the fraction ligated was 0.0431.

For GAGACCGCAACTGAAAAGTTGTTATAAGAAATGGATGGGTTTAATTTCTGCACGTAGAAGCAAAAGGC [C26A G42T], the fraction ligated was 0.00182.

On to GAGACCGCAACTGAAAAGTTGTTATAAGAAATGGATGGGTTAAATTTCTGCACGTAGAAGCAAAAGGC [C26A G42A], for which the fraction ligated was 0.00533.

As to GAGACCGCAACTGAAAAGTTGTTATAAGAAATGGATGGGTTCAATTTCTGCACGTAGAAGCAAAAGGC [C26A G42C], the fraction ligated is 0.00168.

For the variant GAGACCGCAACTGAAAAGTTGTTATGAGAAATGGATGGGTTGAATTTCTGCACGTAGAAGCAAAAGGC [C26G], the fraction ligated turned out to be 0.0466.

As to GAGACCGCAACTGAAAAGTTGTTATAAGAAATGGATGGGTTGAATTTCTGCACGTAGAAGCAAAAGGC [C26A], the fraction ligated was found to be 0.121.

As to GAGACCGCAACTGAAAAGTTGTTATAAGAAATGGATAGGTTGAATTTCTGCACGTAGAAGCAAAAGGC [C26A G37A], the fraction ligated came to 0.00335.

Consider GAGACCGCAACTGAAAAGTTGTTATAAGAAATGGATCGGTTGAATTTCTGCACGTAGAAGCAAAAGGC [C26A G37C], for which the fraction ligated was determined as 0.00572.

For GAGACCGCAACTGAAAAGTTGTTATAAGAAATGGATTGGTTGAATTTCTGCACGTAGAAGCAAAAGGC [C26A G37T], the fraction ligated came to 0.00569.

With GAGACCGCAACTGAAAAGTTGTTATGAGAAATGGATGGGTTGACTTTCTGCACGTAGAAGCAAAAGGC [C26G A44C], the fraction ligated worked out at 0.00656.

Turning to GAGACCGCAACTGAAAAGTTGTTATGAGAAATGGATGGGTTGATTTTCTGCACGTAGAAGCAAAAGGC [C26G A44T], the fraction ligated amounted to 0.0283.

For GAGACCGCAACTGAAAAGTTGTTATGAGAAATGGATGGGTTGAGTTTCTGCACGTAGAAGCAAAAGGC [C26G A44G], the fraction ligated came to 0.0117.

In the case of GAGACCGCAACTGAAAAGTTGTTATGAGAAATGGGTGGGTTGAATTTCTGCACGTAGAAGCAAAAGGC [C26G A35G], the fraction ligated is 0.00566.

In the case of GAGACCGCAACTGAAAAGTTGTTATGAGAAATGGCTGGGTTGAATTTCTGCACGTAGAAGCAAAAGGC [C26G A35C], the fraction ligated is 0.00486.

As for GAGACCGCAACTGAAAAGTTGTTATGAGAAATGGTTGGGTTGAATTTCTGCACGTAGAAGCAAAAGGC [C26G A35T], the fraction ligated was 0.000597.

GAGACCGCAACTGAAAAGTTGTTATAAGAAATGGATGGGTTGTATTTCTGCACGTAGAAGCAAAAGGC [C26A A43T]: the fraction ligated is 0.00633.

In the case of GAGACCGCAACTGAAAAGTTGTTATAAGAAATGGATGGGTTGGATTTCTGCACGTAGAAGCAAAAGGC [C26A A43G], the fraction ligated came to 0.00987.

In the case of GAGACCGCAACTGAAAAGTTGTTATAAGAAATGGATGGGTTGCATTTCTGCACGTAGAAGCAAAAGGC [C26A A43C], the fraction ligated came to 0.00276.

GAGACCGCAACTGAAAAGTTGTTATAAGAAAGGGATGGGTTGAATTTCTGCACGTAGAAGCAAAAGGC [C26A T32G]: the fraction ligated was 0.00324.

Turning to GAGACCGCAACTGAAAAGTTGTTATAAGAAAAGGATGGGTTGAATTTCTGCACGTAGAAGCAAAAGGC [C26A T32A], the fraction ligated is 0.00455.

On to GAGACCGCAACTGAAAAGTTGTTATAAGAAACGGATGGGTTGAATTTCTGCACGTAGAAGCAAAAGGC [C26A T32C], for which the fraction ligated stood at 0.0036.

As to GAGACCGCAACTGAAAAGTTGTTATGAGAAATGGATGGGTTGGATTTCTGCACGTAGAAGCAAAAGGC [C26G A43G], the fraction ligated is 0.00467.

As to GAGACCGCAACTGAAAAGTTGTTATGAGAAATGGATGGGTTGTATTTCTGCACGTAGAAGCAAAAGGC [C26G A43T], the fraction ligated turned out to be 0.00299.

GAGACCGCAACTGAAAAGTTGTTATGAGAAATGGATGGGTTGCATTTCTGCACGTAGAAGCAAAAGGC [C26G A43C]: the fraction ligated stood at 0.00457.

With GAGACCGCAACTGAAAAGTTGTTATAAGAAATGGCTGGGTTGAATTTCTGCACGTAGAAGCAAAAGGC [C26A A35C], the fraction ligated worked out at 0.00203.

Turning to GAGACCGCAACTGAAAAGTTGTTATAAGAAATGGGTGGGTTGAATTTCTGCACGTAGAAGCAAAAGGC [C26A A35G], the fraction ligated turned out to be 0.00416.

As for GAGACCGCAACTGAAAAGTTGTTATAAGAAATGGTTGGGTTGAATTTCTGCACGTAGAAGCAAAAGGC [C26A A35T], the fraction ligated was 0.00429.
